According to PMC4665922, “Comparative assessment of native and heterologous 2-oxo acid decarboxylases for application in isobutanol production by Saccharomyces cerevisiae” (Biotechnology for Biofuels, 2015):

Experiments:
Test in all cases: cells, lysate or membranes
Type in all cases: biochemical, Lactococcus lactis
[1] = substrate: CC[C@H](C)C(=O)C(=O)O; settings: cell extract of ammonium-grown cells, pH 7.0, 30 °C, 0.2 mM thiamine pyrophosphate, 5 mM MgCl2
[2] = substrate: CC(C)C(=O)C(=O)O; settings: cell extract of ammonium-grown cells, pH 7.0, 30 °C, 0.2 mM thiamine pyrophosphate, 5 mM MgCl2, cooperative, Hill equation
[3] = substrate: CC(C)CC(=O)C(=O)O; settings: cell extract of ammonium-grown cells, pH 7.0, 30 °C, 0.2 mM thiamine pyrophosphate, 5 mM MgCl2

B1: KivD (Lactococcus lactis subsp. lactis) (protein)
chain: MYTVGDYLLDRLHELGIEEIFGVPGDYNLQFLDQIISHKDMKWVGNANELNASYMADGYARTKKAAAFLTTFGVGELSAVNGLAGSYAENLPVVEIVGSPTSKVQNEGKFVHHTLADGDFKHFMKMHEPVTAARTLLTAENATVEIDRVLSALLKERKPVYINLPVDVAAAKAEKPSLPLKKENSTSNTSDQEILNKIQESLKNAKKPIVITGHEIISFGLEKTVTQFISKTKLPITTLNFGKSSVDEALPSFLGIYNGTLSEPNLKEFVESADFILMLGVKLTDSSTGAFTHHLNENKMISLNIDEGKIFNERIQNFDFESLISSLLDLSEIEYKGKYIDKKQEDFVPSNALLSQDRLWQAVENLTQSNETIVAEQGTSFFGASSIFLKSKSHFIGQPLWGSIGYTFPAALGSQIADKESRHLLFIGDGSLQLTVQELGLAIREKINPICFIINNDGYTVEREIHGPNQSYNDIPMWNYSKLPESFGATEDRVVSKIVRTENEFVSVMKEAQADPNRMYWIELILAKEGAPKVLKKMGKLFAEQNKS
notes: full-length ORF, codon optimised, no tag mentioned; TDH3 promoter plasmid pUDE336 in S. cerevisiae IME262 (pdc1 pdc5 pdc6 aro10 deleted); cell extract
[1]
  Km: 12.9 ± 2.87 mM
  Vmax: 0.05 µmol/min/mg
  Vmax/Km: 3.9 µL/min/mg
[2]
  K0.5: 7.73 ± 1.62 mM
  Vmax: 0.03 µmol/min/mg
  Vmax/Km: 3.9 µL/min/mg
[3]
  Km: 2.42 ± 0.90 mM
  Vmax: 0.04 µmol/min/mg
  Vmax/Km: 17 µL/min/mg
